Test results as given in FireProtDB (doi:10.1021/bi991422s).

B1: Guanyl-specific ribonuclease T1, P00651 (parent)
chain: MMYSKLLTLTTLLLPTALALPSLVERACDYTCGSNCYSSSDVSTAQAAGYQLHEDGETVGSNSYPHKYNNYEGFDFSVSSPYYEWPILSSGDVYSGGSPGADRVVFNENNQLAGVITHTGASGNNFVECT

Variants of: B1
Settings: Aspergillus oryzae (strain ATCC 42149 / RIB 40); pH 7; 15 °C; Thermal; DSC; MOPS 30 mM; reversible: yes; structure 1RN1; whole UniProt chain shown

Variant | ddG of mutation (higher = less stable) | heat capacity change of unfolding
MMYSKLLTLTTLLLPTALALPSLVERACDYTCGSNCYSSSDVSTAQAAGYQLHEDGETVGSNSYPHKYNNYEGFDFSVSSPYYEWPILSSGDVYSGGSPGAARVVFNENNQLAGVITHTGASGNNFVECT | 3.8 kcal/mol | 1.39 kcal/mol/K
MMYSKLLTLTTLLLPTALALPSLVERACDYTCGSNCYSSSDVSTAQAAGYQLHEDGETVGSNSYPHKYNNYEGFDFSVSSPYYEWPILSSGDVYSGGSPGASRVVFNENNQLAGVITHTGASGNNFVECT | 3.1 kcal/mol | 1.39 kcal/mol/K

Same assay, conditions: Aspergillus oryzae (strain ATCC 42149 / RIB 40); pH 7; 15 °C; Urea; DSC; MOPS 30 mM; reversible: yes; structure 1RN1; whole UniProt chain shown

Variant | ddG of mutation (higher = less stable) | denaturant m value | denaturant midpoint (higher = more stable) | unfolding free energy
MMYSKLLTLTTLLLPTALALPSLVERACDYTCGSNCYSSSDVSTAQAAGYQLHEDGETVGSNSYPHKYNNYEGFDFSVSSPYYEWPILSSGDVYSGGSPGAARVVFNENNQLAGVITHTGASGNNFVECT | 3.7 kcal/mol | 1.42 kcal/mol/M | 2.57 M | –
MMYSKLLTLTTLLLPTALALPSLVERACDYTCGSNCYSSSDVSTAQAAGYQLHEDGETVGSNSYPHKYNNYEGFDFSVSSPYYEWPILSSGDVYSGGSPGANRVVFNENNQLAGVITHTGASGNNFVECT | 3.09 kcal/mol | 1.41 kcal/mol/M | 3.01 M | 4.25 kcal/mol

Same assay, conditions: Aspergillus oryzae (strain ATCC 42149 / RIB 40); pH 7; Thermal; DSC; MOPS 30 mM; reversible: yes; structure 1RN1; whole UniProt chain shown

Variant | Tm | change of melting temperature, mutant - wild type (higher = more stable) | unfolding enthalpy (calorimetric)
MMYSKLLTLTTLLLPTALALPSLVERACDYTCGSNCYSSSDVSTAQAAGYQLHEDGETVGSNSYPHKYNNYEGFDFSVSSPYYEWPILSSGDVYSGGSPGAARVVFNENNQLAGVITHTGASGNNFVECT | 35.6 °C | -15.2 °C | 71.1 kcal/mol
MMYSKLLTLTTLLLPTALALPSLVERACDYTCGSNCYSSSDVSTAQAAGYQLHEDGETVGSNSYPHKYNNYEGFDFSVSSPYYEWPILSSGDVYSGGSPGASRVVFNENNQLAGVITHTGASGNNFVECT | 37.2 °C | -13.6 °C | 77.6 kcal/mol
MMYSKLLTLTTLLLPTALALPSLVERACDYTCGSNCYSSSDVSTAQAAGYQLHEDGETVGSNSYPHKYNNYEGFDFSVSSPYYEWPILSSGDVYSGGSPGANRVVFNENNQLAGVITHTGASGNNFVECT | 37 °C | -13.8 °C | 76 kcal/mol

Same assay, conditions: Aspergillus oryzae (strain ATCC 42149 / RIB 40); pH 7; 5 °C; Urea; DSC; MOPS 30 mM; reversible: yes; structure 1RN1; whole UniProt chain shown

Variant | ddG of mutation (higher = less stable) | denaturant m value | denaturant midpoint (higher = more stable) | unfolding free energy
MMYSKLLTLTTLLLPTALALPSLVERACDYTCGSNCYSSSDVSTAQAAGYQLHEDGETVGSNSYPHKYNNYEGFDFSVSSPYYEWPILSSGDVYSGGSPGANRVVFNENNQLAGVITHTGASGNNFVECT | 2.77 kcal/mol | 1.53 kcal/mol/M | 3.63 M | 5.55 kcal/mol

Same assay, conditions: Aspergillus oryzae (strain ATCC 42149 / RIB 40); pH 7; 10 °C; Urea; DSC; MOPS 30 mM; reversible: yes; structure 1RN1; whole UniProt chain shown

Variant | ddG of mutation (higher = less stable) | denaturant m value | denaturant midpoint (higher = more stable) | unfolding free energy
MMYSKLLTLTTLLLPTALALPSLVERACDYTCGSNCYSSSDVSTAQAAGYQLHEDGETVGSNSYPHKYNNYEGFDFSVSSPYYEWPILSSGDVYSGGSPGANRVVFNENNQLAGVITHTGASGNNFVECT | 2.87 kcal/mol | 1.52 kcal/mol/M | 3.3 M | 5 kcal/mol

Same assay, conditions: Aspergillus oryzae (strain ATCC 42149 / RIB 40); pH 7; 20 °C; Urea; DSC; MOPS 30 mM; reversible: yes; structure 1RN1; whole UniProt chain shown

Variant | ddG of mutation (higher = less stable) | denaturant m value | denaturant midpoint (higher = more stable) | unfolding free energy
MMYSKLLTLTTLLLPTALALPSLVERACDYTCGSNCYSSSDVSTAQAAGYQLHEDGETVGSNSYPHKYNNYEGFDFSVSSPYYEWPILSSGDVYSGGSPGANRVVFNENNQLAGVITHTGASGNNFVECT | 3.19 kcal/mol | 1.48 kcal/mol/M | 2.39 M | 3.53 kcal/mol

Same assay, conditions: Aspergillus oryzae (strain ATCC 42149 / RIB 40); pH 7; 25 °C; Urea; DSC; MOPS 30 mM; reversible: yes; structure 1RN1; whole UniProt chain shown

Variant | ddG of mutation (higher = less stable) | denaturant m value | denaturant midpoint (higher = more stable) | unfolding free energy
MMYSKLLTLTTLLLPTALALPSLVERACDYTCGSNCYSSSDVSTAQAAGYQLHEDGETVGSNSYPHKYNNYEGFDFSVSSPYYEWPILSSGDVYSGGSPGANRVVFNENNQLAGVITHTGASGNNFVECT | 3.51 kcal/mol | 1.44 kcal/mol/M | 1.8 M | 2.58 kcal/mol
